Measured values: IntAct's records for PubMed 9571151

B1: Tyrosine-protein kinase BTK (Homo sapiens), Q06187 (parent)
chain: MAAVILESIFLKRSQQKKKTSPLNFKKRLFLLTVHKLSYYEYDFERGRRGSKKGSIDVEKITCVETVVPEKNPPPERQIPRRGEESSEMEQISIIERFPYPFQVVYDEGPLYVFSPTEELRKRWIHQLKNVIRYNSDLVQKYHPCFWIDGQYLCCSQTAKNAMGCQILENRNGSLKPGSSHRKTKKPLPPTPEEDQILKKPLPPEPAAAPVSTSELKKVVALYDYMPMNANDLQLRKGDEYFILEESNLPWWRARDKNGQEGYIPSNYVTEAEDSIEMYEWYSKHMTRSQAEQLLKQEGKEGGFIVRDSSKAGKYTVSVFAKSTGDPQGVIRHYVVCSTPQSQYYLAEKHLFSTIPELINYHQHNSAGLISRLKYPVSQQNKNAPSTAGLGYGSWEIDPKDLTFLKELGTGQFGVVKYGKWRGQYDVAIKMIKEGSMSEDEFIEEAKVMMNLSHEKLVQLYGVCTKQRPIFIITEYMANGCLLNYLREMRHRFQTQQLLEMCKDVCEAMEYLESKQFLHRDLAARNCLVNDQGVVKVSDFGLSRYVLDDEYTSSVGSKFPVRWSPPEVLMYSKFSSKSDIWAFGVLMWEIYSLGKMPYERFTNSETAEHIAQGLRLYRPHLASEKVYTIMYSCWHEKADERPTFKILLSNILDVMDEES
partner: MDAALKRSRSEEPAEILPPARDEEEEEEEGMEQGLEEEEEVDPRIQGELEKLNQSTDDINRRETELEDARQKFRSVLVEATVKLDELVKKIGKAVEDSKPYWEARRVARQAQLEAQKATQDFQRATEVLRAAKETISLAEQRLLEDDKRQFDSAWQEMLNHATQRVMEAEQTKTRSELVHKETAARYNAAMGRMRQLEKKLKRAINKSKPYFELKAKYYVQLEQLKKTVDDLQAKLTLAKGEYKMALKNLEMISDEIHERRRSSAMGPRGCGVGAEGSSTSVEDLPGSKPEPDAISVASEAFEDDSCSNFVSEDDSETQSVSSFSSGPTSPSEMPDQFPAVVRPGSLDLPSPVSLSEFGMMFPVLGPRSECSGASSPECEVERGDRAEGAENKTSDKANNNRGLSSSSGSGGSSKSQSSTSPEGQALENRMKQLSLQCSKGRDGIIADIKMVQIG

Variants of: B1
Conditions: with 3bp5_human SH3BP5, O60239

effect of a mutation on the interaction	Variant
decreasing interaction	W251L;W252L
